The target in assay [1] is Masked SpyCatcher003 (N-terminal His6 tag-SpyCatcher003-TEV protease cleavage site-SpyTag003 D117A). Description: covalent coupling (isopeptide bond) followed by SDS-PAGE and densitometry; Masked SpyCatcher003, before or after cleavage by superTEV protease, with SpyTag003-MBP; both partners at 5 µM, 37 °C, PBS pH 7.4, time course.
For assay [2], the target named is Unmasked Catcher (Masked SpyCatcher003 after cleavage by superTEV protease). The description is as above.
The target of assay [3] is DoubleCatcher (N-terminal His6 tag-TEV protease cleavage site-two SpyCatcher003 moieties connected by a (GSG)3 spacer-TEV protease cleavage site-SpyTag003 DA). Nature of the assay: covalent coupling (isopeptide bond) followed by SDS-PAGE and densitometry; DoubleCatcher 2.5 µM with SpyTag003-mClover3 5 µM, no TEV protease, PBS pH 7.4, 37 °C, time course.
The target in assay [4] is unmasked DoubleCatcher:SpyTag003-MBP. Nature of the assay: covalent coupling (isopeptide bond) followed by SDS-PAGE and densitometry; step 1: DoubleCatcher with two-fold excess SpyTag003-MBP for 2 h, excess removed on bead-immobilized SpyCatcher003; step 2: superTEV protease at 34 °C, then 2 µM of the cleaved construct with 10 µM SUMO-SpyTag003, time course.

In assay [1], “SpyTag003 linked to maltose-binding protein (MBP)” registered a percent reacted after 60 min of 3.7%. In assay [2], this substance displayed a half-time of reaction (t1/2) of 2.7 min and a percent reacted of more than 99%.

In assay [3], “SpyTag003 linked to the green fluorescent protein mClover3” yielded a half-time of reaction (t1/2) of 0.58 min and a percent reacted after 1 h of 91%.

On to “SpyTagged Small Ubiquitin-like Modifier (N-terminal His6 tag-SUMO protein-SpyTag003)”, for which, in assay [4], the half-time of reaction (t1/2) worked out at 3.6 min and the percent reacted is more than 98%.

The values above are taken from paper PMC10944524.
